Data on 1 substance can be found in patent US20070148130A1.

One data set has as its system T1, MPRN-12.
T1 sequence: NVKGTEDSG

In a further data set the test system is T2, MPRN-20.
T2 sequence: KGTEDSGTT

Take “partially purified native TRRE (pooled Phenyl Sepharose fractions with the highest specific activity, from stimulated THP-1 cells)”: the “TNF-R peptide cleavage activity (FRET assay) of Phenyl Sepharose elution fractions” value in the data set with MPRN-12 is recorded as “The leading edge of the protein peak was found to give the highest FRET signal (shown here for MPRN-12)”; with MPRN-20, “Fractions 4-6 but not 7-10 also cleaved MPRN-20”. Besides, the “specific activity in the FRET peptide cleavage assay” value with MPRN-12 is on record as “a specific activity of 378 FU/µg in the FRET assay using the MPRN-12 substrate”.
